Experimental findings from patent US20230235075A1 (DYNAMICURE BIOTECHNOLOGY, published 2023) are described below.

Changes are numbered by the printed parent chain.

T1: Human CD93 on the cell surface (human CD93 expressing CHO cells; HUVEC, U937 and KG1a cells) (human, UniProt Q9NPY3 22-652)
T1 construct: whole, on cells; also called hCD93 CHO cells; CHO-hCD93
T1 sequence (looked up): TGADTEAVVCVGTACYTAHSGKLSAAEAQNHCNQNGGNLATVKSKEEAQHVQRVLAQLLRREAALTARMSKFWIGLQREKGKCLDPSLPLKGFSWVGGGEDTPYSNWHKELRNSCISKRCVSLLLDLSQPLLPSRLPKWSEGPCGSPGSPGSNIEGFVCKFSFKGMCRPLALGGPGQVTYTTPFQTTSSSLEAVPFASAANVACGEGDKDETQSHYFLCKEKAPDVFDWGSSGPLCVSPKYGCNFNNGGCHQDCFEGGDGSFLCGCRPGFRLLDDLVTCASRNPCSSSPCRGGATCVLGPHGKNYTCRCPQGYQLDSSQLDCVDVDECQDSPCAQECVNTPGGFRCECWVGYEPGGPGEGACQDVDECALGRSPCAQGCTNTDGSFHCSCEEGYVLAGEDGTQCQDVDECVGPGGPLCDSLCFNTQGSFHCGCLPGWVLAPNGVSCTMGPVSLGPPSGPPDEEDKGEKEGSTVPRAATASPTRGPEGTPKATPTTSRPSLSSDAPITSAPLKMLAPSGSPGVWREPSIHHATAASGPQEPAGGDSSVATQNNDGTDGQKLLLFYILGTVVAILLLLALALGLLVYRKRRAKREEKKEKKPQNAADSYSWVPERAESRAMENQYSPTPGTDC

B1: Humanized 17B10 H1L1 (antibody, mouse IgG1, V domains shown)
VH: QVQLVQSGAEVKKPGSSVKVSCKASGYAFSSYWLNWVRQAPGQGLEWFGRIYPGDGDTDYNGKFKGRVTLTADKSTSTAYMELSSLRSEDTAVYFCVRGDGYWAMDYWGQGTTVTVSS
VL: DIVMTQSPLSLPVTPGEPASISCRFSQSLLHSNGITYLYWYLQKPGQSPQLLIYQMSNLASGVPDRFSGSGSGTDFTLKISRVEAEDVGVYYCAQNLELPWTFGGGTKLEIK
notes: Chimeric Fc: mouse IgG1 CH2 and CH3 domains and human CH1 domains
B2: Humanized 17B10 H1L3 (antibody, mouse IgG1, V domains shown)
VH: B1 VH
VL: DIVMTQSPDSLAVSLGERATINCRFSKSLLHSNGITYLYWYQQKPGQPPKLLIYQMSNLASGVPDRFSGSGSGTDFTLTISSLQAEDVAVYYCAQNLELPWTFGGGTKLEIK
B3: Humanized 17B10 H1L2 (antibody, mouse IgG1, V domains shown)
VH: B1 VH
VL: B1 VL with S7T, Q55T
B4: Humanized 17B10 H2L1 (antibody, mouse IgG1, V domains shown)
VH: QVQLVQSGAEVVKSGASVKVSCKASGYAFSSYWLNWVRQAPGQGLEWFGRIYPGDGDTDYNGKFKGRVTLIRDTSTSTVYMELTSLTSEDTAVYYCVRGDGYWAMDYWGQGTLVTVSS
VL: B1 VL
B5: 19B5 (antibody, V domains shown)
VH: DVNLVESGGGLVKLGGSLKLSCAASGFTFSNYYMSWVRQSPEKRLEWVATISNNGDSTYYLDTVKGRFTISRDSAENTLYLQMSSLISEDTAVYYCTRVGTGFTYWGQGTLVTVSA
VL: DIVLTQSPATLSVTPGDSVSLSCRASQSINNYLHWYQQRSHESPRLLIKFASQSISDIPSRFSGSGSGTDFTLSINSIETEDFGMYFCQQSNSWPLTFGAGTKLELK
notes: Mouse hybridoma monoclonal antibody
B6: 12H4 (antibody, V domains shown)
VH: EVQLQQSGPELVKPGASVKVSCKASGYTFTDYYIHWVKQRPGQGLEWIGEIYPGSDDAYYNEKFKGKATLTADKSSSTAYMQLSSLTSEDSAVYFCTRETTATAYWGQGTLVTVSA
VL: QIVLTQSPAIMSASPGEKVTITCSASSSVSLIYWFQQKPGTSPKLWIYSTSNLASGVPARFSGSGSGTSYSLTISRMEAEDAATYYCQQRSGYPPTFGGGTKLEIK
notes: as for B5
B7: 17A7 (antibody, V domains shown)
VH: QVQLQQSGPELVKPGASVKISCKGSGYAFSTYWMNWVKQRPGKGLEWIGRIFPGDGDTDYDGKFKGKATLTADKSSNTAYMQLSSLTSEDSAVYFCARTGAAYEFDPFPYWGQGTLVTVSA
VL: DIVMTQAAFSNPVTLGTSASISCSSTKSLLHSSGITYLYWYLQRPGQSPQLLIYRMSNLASGVPDRFSGSGSGTDFTLRISRVEAEDVGVYYCAQMLERPFTFGSGTKLEIK
notes: as for B5
B8: 20C7 (antibody, V domains shown)
VH: EVQLQQSGPELVNPGASVKMSCKASGYTFTAYVMHWVKQKPGQGLEWIGYIFPYNDGTEYNEKFKGKATLTSDKSSSTAYMELSSLTSEDSAVYYCARRTDGNPYTMDYWGQGTSVTVSS
VL: DIVMTQSHKFMSTSVGDRVSITCKASQDVSTAVAWYQQKPGQSPKLLIHSASYRYTGVPDRFTGRGSGTDFTFTISSVQAEDLAVYYCQQHYSTPFTFGSGTKLEIK
notes: as for B5
B9: 17E6 (antibody, V domains shown)
VH: B8 VH with N13K, A31S, M34I, F52N, N55S, G57Y, E59Q, Y95S, T100A, T106A
VL: B8 VL with I21T, A34V, H49Y, R65S, S76T
notes: as for B5

The target of the first test is T1, Human CD93 on the cell surface (human …). Briefly: FACS, CHO cells overexpressing human CD93. (In general: In flow cytometry, cells or beads pass a laser one at a time.)
Consider B1, for which the binding result is “binds”.

Regarding B2, the binding result was “binds”.

For the molecule B3, the binding result is recorded as “binds”.

Take B4: the binding result is “binds”.

A further test shares this target. Briefly: summary table, column 'Binding' (assay not given).
As to B5, the binding result is on record as “binds”.

Take B6: the binding result is listed as “binds”.

For B7, the binding result is listed as “binds”.

With B8, the binding result was “binds”.

For the molecule B9, the binding result is “binds”.
